Source: PMC4881023, “SALM5 trans-synaptically interacts with LAR-RPTPs in a splicing-dependent manner to regulate synapse development” (Scientific Reports, 2016)
Values belong to the molecule of their own block, whether it stands above or below them.

What was measured:
[1] = biological target: SALM5 (untagged) (not stated (mouse and human SALM5 are named for other constructs)) (UniProt Q8BXA0); experiment: quantitative cell-surface binding assay (HRP anti-human Fc, Scatchard analysis); apparent; SALM5 (untagged)-expressing HEK293T cells in 96-well plates, fixed, incubated with increasing concentrations of LAR-Ecto-Fc for 1 hour, HRP-conjugated anti-human-Fc, TMB colour reaction
Chain of SALM5 (untagged) (not stated (mouse and human SALM5 are named for other constructs)) (Q8BXA0 18-719): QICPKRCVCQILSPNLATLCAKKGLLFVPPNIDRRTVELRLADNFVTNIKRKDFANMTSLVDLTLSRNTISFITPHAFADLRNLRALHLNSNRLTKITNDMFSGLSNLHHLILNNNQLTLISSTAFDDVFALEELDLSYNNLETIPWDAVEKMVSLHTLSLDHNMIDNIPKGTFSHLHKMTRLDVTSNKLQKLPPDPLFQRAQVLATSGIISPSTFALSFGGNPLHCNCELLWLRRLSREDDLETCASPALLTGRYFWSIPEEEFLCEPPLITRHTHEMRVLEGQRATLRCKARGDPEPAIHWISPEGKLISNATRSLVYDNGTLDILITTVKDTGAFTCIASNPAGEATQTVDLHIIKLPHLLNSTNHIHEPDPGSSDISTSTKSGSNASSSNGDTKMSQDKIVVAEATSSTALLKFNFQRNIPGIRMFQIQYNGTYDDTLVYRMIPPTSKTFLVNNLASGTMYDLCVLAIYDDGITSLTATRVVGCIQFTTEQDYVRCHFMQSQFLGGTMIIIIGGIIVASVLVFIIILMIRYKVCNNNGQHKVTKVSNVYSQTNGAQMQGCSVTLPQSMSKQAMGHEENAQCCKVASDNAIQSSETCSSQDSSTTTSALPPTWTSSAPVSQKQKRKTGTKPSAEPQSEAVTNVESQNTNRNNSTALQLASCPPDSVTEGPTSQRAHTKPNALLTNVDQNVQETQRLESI

[2] = biological target: T1, LAR-Ig (Ig1-3)-Fc of the BLI (human, UniProt P10586 30-318); experiment: BLI; BLItz; 10 μM LAR-Ig (Ig1-3)-Fc or LAR-FN12-Fc immobilised on protein A biosensors for 120 s, hybrid SALM5-Ecto as analyte at three concentrations; 20 mM HEPES, 50 mM NaCl, pH 7.0; global fit; settings: both partners purified
T1 chain: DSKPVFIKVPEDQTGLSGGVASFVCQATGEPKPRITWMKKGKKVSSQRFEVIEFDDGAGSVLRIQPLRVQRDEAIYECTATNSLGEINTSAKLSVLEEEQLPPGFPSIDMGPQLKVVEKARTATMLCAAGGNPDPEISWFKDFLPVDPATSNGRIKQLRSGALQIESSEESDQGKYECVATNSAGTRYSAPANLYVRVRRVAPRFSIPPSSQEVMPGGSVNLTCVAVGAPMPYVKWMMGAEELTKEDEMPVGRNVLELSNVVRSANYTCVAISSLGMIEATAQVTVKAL

hySALM5-Ecto-Fc = biological target: T2, hySALM5-Ecto-Fc ( | human, UniProt Q96NI6 59-374); experiment: BLI; BLItz; hySALM5-Ecto-Fc pre-bound to protein A biosensors, LAR-Ig-FN12 as analyte at three concentrations; 20 mM HEPES, 50 mM NaCl, pH 7.0; global fit; settings: both partners purified
T2 chain: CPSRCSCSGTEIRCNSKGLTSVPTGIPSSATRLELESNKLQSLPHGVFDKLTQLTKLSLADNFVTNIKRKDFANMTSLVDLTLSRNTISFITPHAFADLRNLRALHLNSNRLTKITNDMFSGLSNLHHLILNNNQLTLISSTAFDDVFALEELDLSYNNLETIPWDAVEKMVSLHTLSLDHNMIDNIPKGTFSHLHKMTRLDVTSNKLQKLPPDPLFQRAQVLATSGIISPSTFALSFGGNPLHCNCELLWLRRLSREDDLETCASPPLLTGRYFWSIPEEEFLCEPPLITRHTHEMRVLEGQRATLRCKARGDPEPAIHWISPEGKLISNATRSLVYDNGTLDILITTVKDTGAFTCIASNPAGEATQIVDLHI

- Kd [1]: 0.00896 µM
Molecule: LAR-Ecto-Fc (meA^− and meB^−) (from UniProt P10586 30-1263) (Fc fusion)

- Kd [2]: 16.6 µM
B1: hySALM5-Ecto (hybrid SALM5, LRR + Ig domains), tag cleaved (domain or fragment)
chain: CPSRCSCSGTEIRCNSKGLTSVPTGIPSSATRLELESNKLQSLPHGVFDKLTQLTKLSLADNFVTNIKRKDFANMTSLVDLTLSRNTISFITPHAFADLRNLRALHLNSNRLTKITNDMFSGLSNLHHLILNNNQLTLISSTAFDDVFALEELDLSYNNLETIPWDAVEKMVSLHTLSLDHNMIDNIPKGTFSHLHKMTRLDVTSNKLQKLPPDPLFQRAQVLATSGIISPSTFALSFGGNPLHCNCELLWLRRLSREDDLETCASPPLLTGRYFWSIPEEEFLCEPPLITRHTHEMRVLEGQRATLRCKARGDPEPAIHWISPEGKLISNATRSLVYDNGTLDILITTVKDTGAFTCIASNPAGEATQIVDLHI
modifications: VLRB.61 printed as M1-L82; signal peptide (1-23) taken as removed on secretion; hagfish accession not among the candidates; LVPR residue left by thrombin cleavage omitted / A-B- form taken as stated …

- Kd (hySALM5-Ecto-Fc): 38.5 µM
B2: LAR-Ig-FN12 (Ig1-3-FNIII12, aa 27A–513A) (domain or fragment)
chain: AHGDSKPVFIKVPEDQTGLSGGVASFVCQATGEPKPRITWMKKGKKVSSQRFEVIEFDDGAGSVLRIQPLRVQRDEAIYECTATNSLGEINTSAKLSVLEEEQLPPGFPSIDMGPQLKVVEKARTATMLCAAGGNPDPEISWFKDFLPVDPATSNGRIKQLRSGALQIESSEESDQGKYECVATNSAGTRYSAPANLYVRVRRVAPRFSIPPSSQEVMPGGSVNLTCVAVGAPMPYVKWMMGAEELTKEDEMPVGRNVLELSNVVRSANYTCVAISSLGMIEATAQVTVKALPKPPIDLVVTETTATSVTLTWDSGNSEPVTYYGIQYRAAGTEGPFQEVDGVATTRYSIGGLSPFSEYAFRVLAVNSIGRGPPSEAVRARTGEQAPSSPPRRVQARMLSASTMLVQWEPPEEPNGLVRGYRVYYTPDSRRPPNAWHKHNTDAGLLTTVGSLLPGITYSLRVLAFTAVGDGPPSPTIQVKTQQGVPA
modifications: splice form not given; A-B- form taken because the printed limits fit the P10586 numbering (no meA, no meB) / C-terminal Fc carrier omitted (the Fc would dimerise the chain); VLRB.61 signal peptide
